Results taken from PMC7703929, “Unraveling the mechanism of recognition of the 3’ splice site of the adenovirus major late promoter intron by the alternative splicing factor PUF60”.

T1: SF1 1-260 (human, UniProt Q15637 1-260, C171A)
T1 sequence: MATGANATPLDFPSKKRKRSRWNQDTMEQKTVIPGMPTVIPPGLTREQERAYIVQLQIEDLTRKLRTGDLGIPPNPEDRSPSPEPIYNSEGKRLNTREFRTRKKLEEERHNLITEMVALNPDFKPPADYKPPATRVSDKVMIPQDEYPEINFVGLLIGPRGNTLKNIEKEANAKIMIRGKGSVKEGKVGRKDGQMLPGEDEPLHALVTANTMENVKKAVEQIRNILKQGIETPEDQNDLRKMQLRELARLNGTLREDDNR

B1: *AdML3' (ssDNA)
DNA: GAUGUCAUACUUAUCCUGUCCCUUUUUUUU
modifications: deoxyribose backbone with A, U, C, G bases (dU)
B2: AdML3' RNA (ssRNA)
RNA: B1 DNA

Key:
PUF60 RRMs = PUF60 RRMs (human, UniProt Q9UHX1 118-316, C129S;C255A); test: fluorescence anisotropy; Kd1, two-site sequential model; FA: 50 mM Tris-HCl, 150 mM NaCl, 20 uM EDTA, pH 8.0, room temperature, 10 nM probe; EMSA: same buffer, 5 uM RNA, 5.5% native gel in 0.5X TBE at 4 C; crystals: 0.1 M Tris-HCl pH 8.7, 25% PEG 4000, 5-10 mM BaCl2, 20 C; conditions: protein: recombinant; tags: His tag removed by TEV; chain copies: 2; label: 5'-fluorescein
PUF60 RRMs, sequence (Q9UHX1 118-316 C129S/C255A): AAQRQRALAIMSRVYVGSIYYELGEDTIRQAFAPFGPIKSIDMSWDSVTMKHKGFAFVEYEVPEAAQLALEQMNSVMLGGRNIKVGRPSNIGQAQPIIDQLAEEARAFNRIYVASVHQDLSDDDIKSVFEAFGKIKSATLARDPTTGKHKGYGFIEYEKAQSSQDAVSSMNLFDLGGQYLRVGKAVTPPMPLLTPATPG

PUF60 RRMs+UHM [1] = molecular target: T2, PUF60 RRMs+UHM (human, UniProt Q9UHX1 118-559, C129S;C255A;C487A); test: as above; conditions: protein: recombinant; tags: His tag removed by TEV; N-terminal GRGS left; chain copies: 2; label: 5'-fluorescein
T2 sequence (Q9UHX1 118-559 C129S/C255A/C487A): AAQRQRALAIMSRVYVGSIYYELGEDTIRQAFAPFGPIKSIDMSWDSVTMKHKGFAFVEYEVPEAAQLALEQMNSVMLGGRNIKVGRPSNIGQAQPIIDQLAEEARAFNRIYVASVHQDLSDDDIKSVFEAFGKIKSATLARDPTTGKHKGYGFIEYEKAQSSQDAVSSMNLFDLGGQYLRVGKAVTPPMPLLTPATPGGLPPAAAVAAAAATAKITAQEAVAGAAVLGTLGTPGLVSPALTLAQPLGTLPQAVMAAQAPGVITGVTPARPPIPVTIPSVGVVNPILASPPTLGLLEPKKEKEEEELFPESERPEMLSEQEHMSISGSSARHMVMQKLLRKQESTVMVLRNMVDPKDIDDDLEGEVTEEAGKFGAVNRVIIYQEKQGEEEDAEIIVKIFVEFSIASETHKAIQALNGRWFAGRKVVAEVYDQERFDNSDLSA

PUF60 RRMs+UHM [2] = molecular target: T2, PUF60 RRMs+UHM; test: EMSA; two conformations at 20 uM PUF60; RNA 5 uM; FA: 50 mM Tris-HCl, 150 mM NaCl, 20 uM EDTA, pH 8.0, room temperature, 10 nM probe; EMSA: same buffer, 5 uM RNA, 5.5% native gel in 0.5X TBE at 4 C; crystals: 0.1 M Tris-HCl pH 8.7, 25% PEG 4000, 5-10 mM BaCl2, 20 C; conditions: protein: recombinant; tags: His tag removed by TEV; N-terminal GRGS left; chain copies: 2
SF1 1-260 = molecular target: T1, SF1 1-260; test: EMSA; SF1 up to 40 uM, RNA 5 uM; FA: 50 mM Tris-HCl, 150 mM NaCl, 20 uM EDTA, pH 8.0, room temperature, 10 nM probe; EMSA: same buffer, 5 uM RNA, 5.5% native gel in 0.5X TBE at 4 C; crystals: 0.1 M Tris-HCl pH 8.7, 25% PEG 4000, 5-10 mM BaCl2, 20 C; conditions: protein: recombinant; tags: His tag removed by TEV; N-terminal G left
PUF60 RRMs+UHM;SF1 1-260 = PUF60 RRMs+UHM;SF1 1-260 (human;human, UniProt Q9UHX1;Q15637 118-559;1-260, C129S;C255A;C487A|C171A); test: EMSA; further upward shift with both proteins, suggests ternary complex; FA: 50 mM Tris-HCl, 150 mM NaCl, 20 uM EDTA, pH 8.0, room temperature, 10 nM probe; EMSA: same buffer, 5 uM RNA, 5.5% native gel in 0.5X TBE at 4 C; crystals: 0.1 M Tris-HCl pH 8.7, 25% PEG 4000, 5-10 mM BaCl2, 20 C; conditions: protein: recombinant;recombinant; tags: His tag removed by TEV; N-terminal GRGS left;His tag removed by TEV; N-terminal G left; chain copies: 2;1
PUF60 RRMs+UHM;SF1 1-260, sequence (Q9UHX1 118-559 C129S/C255A/C487A, one chain of several): as the sequence (Q9UHX1 118-559 C129S/C255A/C487A) above

| Binder | Kd (PUF60 RRMs) [µM] | Kd (PUF60 RRMs+UHM [1]) [µM] | binding result (PUF60 RRMs+UHM [2]) | binding result (SF1 1-260) | binding result (PUF60 RRMs+UHM;SF1 1-260) |
| --- | --- | --- | --- | --- | --- |
| B1 | 3.64 ± 3.6 | 4.61 ± 1.19 |  |  |  |
| B2 |  |  | binds | binds | binds |
